# Legend:
# GATA1 (Homo sapiens) = GATA1 (Homo sapiens) (UniProt P15976); details: ChIP-pyrosequencing, heterozygous primary human erythroblasts; input alleles balanced; about 60:40 G:T
# TAL1 (Homo sapiens) = TAL1 (Homo sapiens) (UniProt P17542); details: ChIP-pyrosequencing, heterozygous primary human erythroblasts; input alleles balanced; about 60:40 G:T
# Sequence of TAL1 (Homo sapiens) (P17542 whole entry): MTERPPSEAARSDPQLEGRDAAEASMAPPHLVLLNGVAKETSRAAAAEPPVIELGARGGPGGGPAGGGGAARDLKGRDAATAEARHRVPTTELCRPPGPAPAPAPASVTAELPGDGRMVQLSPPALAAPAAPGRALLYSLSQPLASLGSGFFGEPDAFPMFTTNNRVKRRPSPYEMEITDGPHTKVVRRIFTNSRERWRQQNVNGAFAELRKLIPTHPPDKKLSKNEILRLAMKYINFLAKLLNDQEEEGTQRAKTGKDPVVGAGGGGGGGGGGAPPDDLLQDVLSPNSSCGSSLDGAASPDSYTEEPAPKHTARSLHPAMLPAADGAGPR
# Sequence of GATA1 (Homo sapiens) (P15976 whole entry): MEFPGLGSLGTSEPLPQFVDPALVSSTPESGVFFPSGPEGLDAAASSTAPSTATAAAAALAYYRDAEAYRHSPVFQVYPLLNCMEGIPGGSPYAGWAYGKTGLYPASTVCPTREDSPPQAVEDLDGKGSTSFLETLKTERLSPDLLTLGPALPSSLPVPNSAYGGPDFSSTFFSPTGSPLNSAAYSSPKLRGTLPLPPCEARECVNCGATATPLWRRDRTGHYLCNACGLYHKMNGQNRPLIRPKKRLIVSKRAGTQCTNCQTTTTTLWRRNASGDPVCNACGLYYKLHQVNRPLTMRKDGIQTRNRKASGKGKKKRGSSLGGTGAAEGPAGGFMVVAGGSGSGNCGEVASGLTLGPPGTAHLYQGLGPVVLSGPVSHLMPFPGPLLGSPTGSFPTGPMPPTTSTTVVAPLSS
Substance,binding signal (% of alleles in ChIP) (GATA1 (Homo sapiens)),binding signal (% of alleles in ChIP) (TAL1 (Homo sapiens))
BCL11A DHS +62 rs1427407 T-allele,40,40
CTGNNNNNNNNNGATA (double strand) [BCL11A DHS +62 rs1427407 G-allele (half-E-box/GATA motif)],60,60
